According to patent US20100047893:

Assays:
[1] = biological target: mixed bovine histones (Sigma)

B1: GST-TbPRMT7 (protein)
chain: MPPKQHRHQKKDKNDNALQNTIGFVPPGATLASVSGYRPPDAFVNRIDRNIPVPARLRHTPVSLIEAVNDFHYAMMNDEERNNFYYEVLKKHVTPETGVLEIGAGSGLLSLMAAKLGAKWVVAVEGSEELAKLARENIRANNMEHQVKVLHMMSTELKSKHLPEPPDVLLSEIFGTMMLGESALDYVVDVRNRLLKPTTKIIPQFGTQYAVPIECDALHRISSVSGWRDLDLKHMMTLQDTVSIVFAKHYGIRMNSVNFRRLSDPIELFRVDFSSSNRNDIPRRKHFDVVAKESGTAHAMLFYWKVTDDEFVMSTDPEDTVNNFPRDMQWGQALQLLDASNGPLPTPVVFTEGKNYNFECNFSGDRVILHMQLCPESGNGEMTECEGKTT
- methylarginine derivatives by cation exchange chromatography after 3H-AdoMet reaction [1]: only monomethylargnine produced with either histone (B) or RBP16 (C) substrate
- protein arginine methyltransferase activity (3H-AdoMet, SDS-PAGE, fluorography) (histone H3, P68432): the recombinant enzyme possesses protein arginine methyltransferase activity and utilizes histone H3 as a substrate
- methylarginine derivatives by cation exchange chromatography after 3H-AdoMet reaction (RBP16): only monomethylargnine produced with either histone (B) or RBP16 (C) substrate

B2: TbPRMT7-ProtC (protein)
chain: B1 chain
- in vitro methylation (3H-AdoMet, fluorography) [1]: TbPRMT7-ProtC strongly methylated both histones and RBP16
- in vitro methylation (3H-AdoMet, fluorography) (RBP16): TbPRMT7-ProtC strongly methylated both histones and RBP16

B3: recombinant TbPRMT7 (protein)
chain: B1 chain
- in vitro methylation (3H-AdoMet, SDS-PAGE, fluorography) (GST): Of the eight substrates tested, only GST was not methylated
- in vitro methylation [1]: Results indicate methylation occurred
- in vitro methylation (RBP16): Results indicate methylation occurred
